This note sets out measurements from patent US20240294651A1 (KYMAB, published 2024).

Where a chain is given by its changes, count along the chain named.

Sequences and labels used below:
B1: CL-83083 (antibody, human IgG4 S228P, lambda)
heavy: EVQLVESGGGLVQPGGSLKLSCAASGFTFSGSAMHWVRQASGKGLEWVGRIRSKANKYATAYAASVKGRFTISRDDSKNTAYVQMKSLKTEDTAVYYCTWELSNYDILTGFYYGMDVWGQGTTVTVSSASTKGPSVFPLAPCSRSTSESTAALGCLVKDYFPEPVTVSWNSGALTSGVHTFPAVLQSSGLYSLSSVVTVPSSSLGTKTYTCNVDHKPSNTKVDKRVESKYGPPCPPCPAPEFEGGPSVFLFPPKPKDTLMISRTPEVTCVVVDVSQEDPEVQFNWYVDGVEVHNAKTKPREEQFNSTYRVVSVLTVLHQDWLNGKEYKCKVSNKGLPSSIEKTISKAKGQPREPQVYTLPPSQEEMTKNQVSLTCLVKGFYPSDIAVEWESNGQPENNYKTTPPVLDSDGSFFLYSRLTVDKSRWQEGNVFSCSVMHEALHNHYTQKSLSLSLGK
light: QAGLTQPPSVSKGLRQTATLTCTGNSNNVGNLGAAWLQQHQGHPPKLLSYRNNNRPSGISERFFASRSGNTASLTITGLQPEDEADYYCSAWDSSLSAWVFGGGTKLTVLGQPKAAPSVTLFPPSSEELQANKATLVCLISDFSPGAVTVAWKADSSPVKAGVETTTPSKQSNNKYAASSYLSLTPEQWKSHKSYSCQVTHEGSTVKKTVAPTECS
notes: Tested in human IgG4-PE format; lambda light chain; also called CL-83083 (IgG4-PE format)
B2: CL-82458 (antibody, human IgG4 S228P, kappa, V domains shown)
VH: EVQLVESGGDLVQPGGSLRLSCAASGFTFYSYAMNWVRQAPGKGLKWVSGISGSGDITYYADSVKGRFTISRDNSKNTLYLQMHSLRPEDTAIYYCAKGQLERRYYKYYGMDVWGQGTTVTVSS
VL: DIQMTQSPSSLSASVGDRVTITCRANQGIRNDLGWYQQKPGKAPKRLIYGASSLKSGVPSRFSGSGSGTEFTLTISSLQPEDFATYYCLQQNSYPLTFGGGTKVEIKR
notes: Tested in human IgG4-PE format; also called CL-82458 (IgG4-PE format)
B3: CL-82658 (antibody, human IgG4 S228P, kappa, V domains shown)
VH: QVQLVESGGGVVQPGRSLRLSCAASGFSFSSYGMHWVRQAPGKGLEWVAVISYDGSNKYYADSVKGRFTISRDNSKNTLYLQMNSLRGEDTAVYYCSKGSLTPRRGYYYSYGMDVWGQGTTVTVSS
VL: B2 VL with N26S, G34S, G50A, K55Q, Q91H, S93G, L96F, G100P, E105D
notes: Tested in human IgG4-PE format; also called CL-82658 (IgG4-PE format)
B4: CL-82574 (antibody, human IgG4 S228P, kappa)
heavy: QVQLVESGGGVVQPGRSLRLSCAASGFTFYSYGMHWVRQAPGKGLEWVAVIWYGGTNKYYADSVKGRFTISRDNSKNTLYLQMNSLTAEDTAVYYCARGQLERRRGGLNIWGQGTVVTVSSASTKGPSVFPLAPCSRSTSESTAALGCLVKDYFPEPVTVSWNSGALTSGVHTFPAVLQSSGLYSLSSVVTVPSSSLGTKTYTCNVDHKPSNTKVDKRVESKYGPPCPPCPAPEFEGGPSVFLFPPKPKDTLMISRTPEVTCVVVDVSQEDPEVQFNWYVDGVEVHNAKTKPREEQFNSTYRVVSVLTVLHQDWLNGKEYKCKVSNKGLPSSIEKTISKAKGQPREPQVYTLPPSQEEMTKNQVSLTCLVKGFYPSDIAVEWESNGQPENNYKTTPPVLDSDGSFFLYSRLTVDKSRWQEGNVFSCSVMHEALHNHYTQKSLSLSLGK
light: DIQMTQSPSSLSASVGDRVTITCRASQGVRDDLGWYQQKPGKAPKRLIYAASSLQSGVPSRFSGSGSGTEFTLTISSLQPEDFATYYCLQHNSYPFTFGPGTKVDIKRTVAAPSVFIFPPSDEQLKSGTASVVCLLNNFYPREAKVQWKVDNALQSGNSQESVTEQDSKDSTYSLSSTLTLSKADYEKHKVYACEVTHQGLSSPVTKSFNRGEC
notes: Tested in human IgG4-PE format; also called CL-82574 (IgG4-PE format)
B5: CL-83083-2 (antibody, human IgG4 S228P, lambda)
heavy: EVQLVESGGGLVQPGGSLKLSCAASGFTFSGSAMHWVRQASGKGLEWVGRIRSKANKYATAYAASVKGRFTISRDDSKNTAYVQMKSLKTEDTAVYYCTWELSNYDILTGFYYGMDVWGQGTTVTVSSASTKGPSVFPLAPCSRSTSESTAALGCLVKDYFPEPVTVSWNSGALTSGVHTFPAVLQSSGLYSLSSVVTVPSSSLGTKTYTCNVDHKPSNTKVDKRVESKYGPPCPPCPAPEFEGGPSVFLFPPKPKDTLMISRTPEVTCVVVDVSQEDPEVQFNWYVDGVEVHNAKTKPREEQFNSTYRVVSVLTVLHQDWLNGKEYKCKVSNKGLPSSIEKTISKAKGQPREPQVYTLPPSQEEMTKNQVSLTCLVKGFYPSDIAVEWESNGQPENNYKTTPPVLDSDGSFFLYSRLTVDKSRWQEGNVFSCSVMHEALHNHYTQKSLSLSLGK
light: B1 light with S144Y, K207E
notes: Same variable domains as CL-83083, different lambda constant region; tested in human IgG4-PE format; also called CL-83083-2 (IgG4-PE format)

T2 sequence (Q28474 whole entry): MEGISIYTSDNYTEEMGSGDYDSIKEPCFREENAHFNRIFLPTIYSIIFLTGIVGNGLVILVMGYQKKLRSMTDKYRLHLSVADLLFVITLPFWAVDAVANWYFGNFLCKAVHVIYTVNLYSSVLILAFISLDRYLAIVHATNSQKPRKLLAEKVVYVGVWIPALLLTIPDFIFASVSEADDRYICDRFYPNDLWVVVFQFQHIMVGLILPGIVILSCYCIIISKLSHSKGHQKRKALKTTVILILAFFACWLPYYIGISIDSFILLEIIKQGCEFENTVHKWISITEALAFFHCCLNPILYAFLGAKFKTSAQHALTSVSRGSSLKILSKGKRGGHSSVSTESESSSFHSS
T3 sequence (P25106 whole entry): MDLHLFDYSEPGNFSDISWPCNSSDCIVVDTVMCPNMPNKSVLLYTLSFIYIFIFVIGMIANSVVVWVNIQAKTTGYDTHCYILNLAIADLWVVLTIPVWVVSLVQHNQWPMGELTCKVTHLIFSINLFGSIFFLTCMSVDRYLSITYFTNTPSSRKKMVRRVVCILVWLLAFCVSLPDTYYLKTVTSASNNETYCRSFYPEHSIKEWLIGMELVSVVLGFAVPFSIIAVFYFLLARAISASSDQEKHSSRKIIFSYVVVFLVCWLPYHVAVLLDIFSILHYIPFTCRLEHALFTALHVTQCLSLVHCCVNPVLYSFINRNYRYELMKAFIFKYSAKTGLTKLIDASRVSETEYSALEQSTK

The target of one assay is T1, human CXCR4 (cell-expressed) (human, UniProt P61073 1-352). The experiment in a line: cell-based or functional assay.
T1 sequence (P61073 whole entry): as the sequence (Q28474 whole entry) above, with I24M, H35N, R38K, K146R, S176N counted along it
Regarding B1, the “IC50 n = 1, Jurkat chemotaxis towards 30 nM CXCL12 (IncuCyte)” value is 0.47 nM; the “IC50 n = 2, Jurkat chemotaxis towards 30 nM CXCL12 (IncuCyte)” value turned out to be 0.43 nM; the “IC50 n = 3, Jurkat chemotaxis towards 30 nM CXCL12 (IncuCyte)” value stood at 0.34 nM; the “Mean IC50, Jurkat chemotaxis towards 30 nM CXCL12 (IncuCyte)” value (“Mean IC50” below) worked out at 0.41 nM.
On to B2, for which the “IC50 n = 1, Jurkat chemotaxis towards 30 nM CXCL12 (IncuCyte)” value turned out to be 2.18 nM; the “IC50 n = 2, Jurkat chemotaxis towards 30 nM CXCL12 (IncuCyte)” value was found to be 3.43 nM; the “IC50 n = 3, Jurkat chemotaxis towards 30 nM CXCL12 (IncuCyte)” value was 1.66 nM; the “Mean IC50” value turned out to be 2.42 nM.
For B3 the same measures were 0.22 nM, 0.31 nM, 0.21 nM and 0.25 nM.
For the molecule B4, the “IC50 n = 1, Jurkat chemotaxis towards 30 nM CXCL12 (IncuCyte)” value came out at 0.32 nM; the “IC50 n = 2, Jurkat chemotaxis towards 30 nM CXCL12 (IncuCyte)” value came out at 0.62 nM; the “IC50 n = 3, Jurkat chemotaxis towards 30 nM CXCL12 (IncuCyte)” value worked out at 0.63 nM; the “Mean IC50” value came out at 0.52 nM.

The next assay has as its target T1, human CXCR4 (cell-expressed). The experiment in a line: cell-based or functional assay. This is another data set of the same source.
On to B1, for which the “Max Signal (Total Overlap Object Area), internalisation on Ramos cells, live-cell imaging” value (shortened to “Max Signal (Total Overlap Object Area)”) was determined as 9670 µm^2 per image.
In the case of B2, the “Max Signal (Total Overlap Object Area)” value stood at 20800 µm^2 per image.
On to B3, for which the “Max Signal (Total Overlap Object Area)” value came out at 18900 µm^2 per image.
Still for that read-out and setting: next, B4: 18100 µm^2 per image.

For the next assay the target is unchanged. The experiment in a line: cell-based or functional assay. This is another data set of the same source.
For the molecule B1, the “% effect (remaining % of CXCL12 response), DMR assay, human T-cells” value came to 5.1% and the “IC50, label-free DMR assay, isolated human T-cells, EC80 CXCL12” value (from here on “IC50, label-free DMR assay”) is 3.58 nM.
As for B5, the “% effect (remaining % of CXCL12 response), DMR assay, human T-cells” value was found to be 4.4% and the “IC50, label-free DMR assay” value is 3.98 nM.
Take B2: the “% effect (remaining % of CXCL12 response), DMR assay, human T-cells” value stood at 2% and the “IC50, label-free DMR assay” value stood at 12.1 nM.
Regarding B3, the “% effect (remaining % of CXCL12 response), DMR assay, human T-cells” value was -0.6% and the “IC50, label-free DMR assay” value stood at 1.54 nM.
With B4, the “% effect (remaining % of CXCL12 response), DMR assay, human T-cells” value is 0.68% and the “IC50, label-free DMR assay” value came to 2.09 nM.

A further assay concerns the target T2, cynomolgus CXCR4 (cynomolgus monkey, UniProt Q28474 1-352).
T2 construct: also called cyno CXCR4; cynomolgus monkey CXCR4
The experiment in a line: flow cytometry on CHO-S cells expressing cynomolgus CXCR4. On the technique in general: In flow cytometry, cells or beads pass a laser one at a time.
Description: Cynomolgus monkey CXCR4 expressing CHO-S cells were plated at 100 uL/well of cells at 1 million of cells/mL (0.1 million of cells/well) into a 96 well V-bottom plate (Greiner). Plates were centrifuged at 300×g for 3 min at 4° C. and supernatant discarded. […] Primary antibody dilutions were added to cells (50 μL/well) and cell pellets resuspended by pipetting. Plates was incubated for 1 h at 4° C. 100 μL/well of PBS, was added and plates centrifuged at 300×g for 3 min at 4° C. and supernatant discarded. This step was repeated twice. […] Cells were resuspended by pipetting. Plates were incubated for 1 h at 4° C. 100 μL/well PBS, was added and plates centrifuged at 300×g for 3 min at 4° C. and supernatant discarded. This step was repeated twice. Finally, cells were resuspended in 100 μL/well of PBS and analysed on CytoFLEX (Beckman Coulter).
Binding of antibodies to cynomolgus CXCR4 expressed on CHO-S cells was analysed by gating the main cell population using forward and side scatter (Flow Jo, Flow Jo LLC) to allow for doublet discrimination. […] EC₅₀ values were calculated by transforming the data and fitting a 4-parameter logistic regression curve to each antibody titration.
With B1, the concentration giving a half-maximal response (EC50) (usually the concentration needed to bring the measured effect to its halfway point) came to 11 nM.
With B2, the midpoint of the response, the EC50, lay at 2.2 nM.
B3: a half-maximal response (EC50) required 4.2 nM.
On to B4, for which it took 3.5 nM to reach a half-maximal effect (EC50).

Another assay addresses T3, human CXCR7 (human, UniProt P25106 1-362).
T3 construct: Expressed on CHO-S cells
The experiment in a line: flow cytometry on CHO-S cells expressing human CXCR7, Alexa Fluor 647 secondary antibody, GeoMean (647 nm).
Description: CXCR7 expressing CHO-S cells were plated at 100 μL/well of cells at 1 million of cells/mL (0.1 million of cells/well) into a 96 well V-bottom plate (Greiner). Plates were centrifuged at 300×g for 3 min at 4° C. and supernatant discarded. […] Primary antibody dilutions were added to cells (100 μL/well) and cell pellets resuspended by pipetting. Plate was incubated for 1 h at 4° C. 100 μL/well of PBS, was added and plates centrifuged at 300×g for 3 min at 4° C. and supernatant discarded. This step was repeated twice. […] Cells were resuspended by pipetting. Plate was incubated for 1 h at 4° C. 100 μL/well of PBS, was added and plates centrifuged at 300×g for 3 min at 4° C. and supernatant discarded. This step was repeated twice. Finally, cells were resuspended in 100 μL/well of PBS and analysed on CytoFLEX (Beckman Coulter).
Binding of antibodies to CXCR7 expressed on CHO-S cells was analysed by gating the main cell population using forward and side scatter (Flow Jo, Flow Jo LLC) to allow for doublet discrimination.
On to B1, for which the binding result is given as “no binding (tested: log(M) about -6.9 (about 1.2e-7 M))”.
On to B2, for which the binding result is “no binding (tested: log(M) about -6.9 (about 1.2e-7 M))”.
Take B3: the binding result is recorded as “no binding (tested: log(M) about -6.9 (about 1.2e-7 M))”.
As to B4, the binding result is reported as “no binding (tested: log(M) about -6.9 (about 1.2e-7 M))”.

The target in a further assay is T4, terbium-labelled SNAP-CXCR4 on HEK-293 cells (Cisbio C1TT1CXCR4) (human, UniProt P61072 1-352 (Pan troglodytes entry), terbium label on the SNAP tag).
T4 construct: Bought assay-ready cells; also called CXCR4 expressing cells; not shown: SNAP tag
T4 sequence (P61072 whole entry): as the sequence (Q28474 whole entry) above, with I24M, H35N, R38K, K146R, S176N counted along it
The experiment in a line: TR-FRET (Tag-lite) competition with AlexaFluor 647-CXCL12 on terbium-labelled SNAP-CXCR4 HEK-293 cells. On the technique in general: Time-resolved FRET reads energy transfer from a long-lived donor to a nearby acceptor.
B1: the “% Max Inhibition” value was determined as 96% and the IC50 (as a rule, the concentration needed to halve the response being measured) stood at 1.74 nM.
For the molecule B5, the “% Max Inhibition” value was determined as 97% and the IC50 is 3.92 nM.
Turning to B2, the “% Max Inhibition” value worked out at 99% and the half-maximal inhibitory concentration (IC50) stood at 0.79 nM.
With B3, the “% Max Inhibition” value is 100% and the IC50 is 1.04 nM.
With B4, the “% Max Inhibition” value is 98% and the IC50 is 0.63 nM.

Another assay has as its target T2, cynomolgus CXCR4. The experiment in a line: cell-based or functional assay.
As for B1, the “% Maximum Inhibition, cAMP HTRF assay, cyno CXCR4 BacMam HEK-293 cells” value (“% Maximum Inhibition, cAMP HTRF assay” for short) turned out to be 84% and the “IC50, cAMP HTRF assay, cyno CXCR4 BacMam HEK-293 cells” value came out at 11.8 nM.
Consider B2, for which the “% Maximum Inhibition, cAMP HTRF assay” value amounted to 78% and the “IC50, cAMP HTRF assay, cyno CXCR4 BacMam HEK-293 cells” value is 2 nM.
With B3, the “% Maximum Inhibition, cAMP HTRF assay” value amounted to 80% and the “IC50, cAMP HTRF assay, cyno CXCR4 BacMam HEK-293 cells” value is 1 nM.
Regarding B4, the “% Maximum Inhibition, cAMP HTRF assay” value was 90% and the “IC50, cAMP HTRF assay, cyno CXCR4 BacMam HEK-293 cells” value is 1.2 nM.

Another assay concerns the target T1, human CXCR4 (cell-expressed). The experiment in a line: cell-based or functional assay. This is another data set of the same source.
As for B1, the “% Max Inhibition, cAMP HTRF assay, CXCR4 BacMam HEK-293 cells” value (from here on “% Max Inhibition, cAMP HTRF assay”) was 80% and the “IC50, cAMP HTRF assay, CXCR4 BacMam HEK-293 cells, 5.5 nM CXCL12” value (“IC50, cAMP HTRF assay … 5.5 nM CXCL12” for short) turned out to be 36 nM.
As for B5, the “% Max Inhibition, cAMP HTRF assay” value was determined as 93% and the “IC50, cAMP HTRF assay … 5.5 nM CXCL12” value turned out to be 44 nM.
For B2 the same measures were 88% and 40 nM.
Regarding B3, the “% Max Inhibition, cAMP HTRF assay” value was 98% and the “IC50, cAMP HTRF assay … 5.5 nM CXCL12” value turned out to be 23 nM.
Turning to B4, the “% Max Inhibition, cAMP HTRF assay” value turned out to be 96% and the “IC50, cAMP HTRF assay … 5.5 nM CXCL12” value came out at 21 nM.

For another assay the target is unchanged. The experiment in a line: cell-based or functional assay. This is another data set of the same source.
With B1, the “% Max Inhibition, beta-arrestin reporter assay, Tango CXCR4-bla U2OS cells” value (“% Max Inhibition … Tango CXCR4-bla U2OS cells” below) was 98.9% and the “IC50, beta-arrestin reporter assay, Tango CXCR4-bla U2OS cells, 30 nM CXCL12” value (“IC50, beta-arrestin reporter assay” for short) amounted to 0.43 nM.
Regarding B5, the “% Max Inhibition … Tango CXCR4-bla U2OS cells” value was determined as 96.9% and the “IC50, beta-arrestin reporter assay” value came out at 0.79 nM.
Regarding B2, the “% Max Inhibition … Tango CXCR4-bla U2OS cells” value was determined as 102% and the “IC50, beta-arrestin reporter assay” value was determined as 0.31 nM.
Consider B3, for which the “% Max Inhibition … Tango CXCR4-bla U2OS cells” value was found to be 100% and the “IC50, beta-arrestin reporter assay” value came to 0.35 nM.
For B4 the same measures were 99.5% and 0.14 nM.

The target in a further assay is T5, CXCR4 StaR nanodiscs.
T5 construct: Purified receptor in lipid-protein nanodiscs; also called StaR CXCR4; thermostabilised CXCR4
The experiment in a line: SPR (Biacore T200), IgG4-PE antibody captured by anti-IgG on CM5, CXCR4 StaR nanodiscs at 250 nM as analyte, 25 C, 1:1 model; N = 1. In general terms: In SPR one partner is held on a chip, and binding of the other changes the refractive index at the surface.
Description: Anti-IgG antibodies were immobilised on chip CM5 (GE Healthcare) by amine coupling. […] A channel with no anti-CXCR4 antibodies captured was used as a reference. […] The blank-subtracted sensorgrams were fitted to the 1:1 interaction model using the Biacore T200 evaluation software. The assay was run at 25° C. using 0.01 M HEPES pH 7.4, 0.15 M NaCl as running buffer.
As to B1, the Kd (usually the free concentration of one partner at which half of the binding sites on the other are occupied at equilibrium, for simple one-to-one binding) is 7.1 nM; the koff – broadly, a measure of how fast the partners let go of each other – is 0.00097 s⁻¹; the kon (in general, the second-order rate constant of association) turned out to be 140000 M⁻¹ s⁻¹.
Molecule B2 registered a Kd of 7.5 nM, a koff of 0.00046 s⁻¹ and a kon of 61000 M⁻¹ s⁻¹.
The matching figures for B3: 9.6 nM, 0.0005 s⁻¹ and 52000 M⁻¹ s⁻¹.
The matching figures for B4: 8 nM, 0.00088 s⁻¹ and 110000 M⁻¹ s⁻¹.

Another assay has as its target T1, human CXCR4 (cell-expressed). The experiment in a line: cell-based or functional assay. The source holds these as a separate data set.
For B1, the “IC50 of antibody in presence of 30 nM CXCL12, human T-cell transwell chemotaxis” value (“IC50 of antibody” below) was 0.35 not printed (nM assumed).
As for B2, the “IC50 of antibody” value is 0.26 not printed (nM assumed).
On the same count and under the same terms, under B3 stands 0.18 not printed (nM assumed).
As to B4, the “IC50 of antibody” value is 0.21 not printed (nM assumed).

Another assay has the same target. The experiment in a line: cell-based or functional assay. The source holds these as a separate data set.
B1: the “% of max migration at 120 nM Ab, primary naïve T-cell trans-well migration” value (from here on “% of max migration at 120 nM Ab”) came to 25.7% and the “IC50, primary naïve T-cell trans-well migration” value was 1.55 nM.
B2: the “% of max migration at 120 nM Ab” value is 17.6%.
Regarding B3, the “% of max migration at 120 nM Ab” value is -2.08% and the “IC50, primary naïve T-cell trans-well migration” value was 0.99 nM.
In the case of B4, the “% of max migration at 120 nM Ab” value stood at 5.44% and the “IC50, primary naïve T-cell trans-well migration” value worked out at 0.95 nM.
